# Experimental data as given in paper PMC9352680, “A comprehensive thermodynamic model for RNA binding by the Saccharomyces cerevisiae Pumilio protein PUF4”.
# T1: PUF4 RNA-binding domain (Saccharomyces cerevisiae, UniProt P25339 537-888)
# T1 sequence: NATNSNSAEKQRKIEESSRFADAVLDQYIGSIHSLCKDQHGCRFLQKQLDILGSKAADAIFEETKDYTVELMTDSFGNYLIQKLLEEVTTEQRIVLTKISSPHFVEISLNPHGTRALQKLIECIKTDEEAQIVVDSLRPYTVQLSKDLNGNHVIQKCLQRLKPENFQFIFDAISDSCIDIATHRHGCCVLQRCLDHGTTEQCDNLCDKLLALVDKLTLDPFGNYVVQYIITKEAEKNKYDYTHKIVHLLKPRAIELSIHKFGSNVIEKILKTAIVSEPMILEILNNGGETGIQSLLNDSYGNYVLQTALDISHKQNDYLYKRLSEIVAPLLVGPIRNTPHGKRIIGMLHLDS
# Target: T1, PUF4 RNA-binding domain
# Test: Mg; RNA-MaP; 20 mM Na-HEPES pH 7.4, 30 mM KOAc, 0.75 mM MgCl2, 0.1% Tween-20, 5% glycerol, 0.1 mg/mL BSA, 2 mM DTT; 25 C; 0.0125-409.6 nM protein
# Details: tags: N-His6-TEV cleaved; C-SNAP kept, Cy3B-labelled; label: tethered on chip by stalled RNA polymerase
row,Binder,Kd
1,ACAAACUGUAUUAUCCCUAACAAAC (ssRNA) [Ie_S3_P5E.1_K5.1_C5.1_H5.1_A5.1_F5.1_[+8CCC]_T5.1],37.5 nM
2,Ie_S4_P3E.2_K3.1_C3.2_[+-2TTCC]_H3.1_A3.1_F3.1_T3.2 (ssRNA) RNA: UUUGACAACUGAUCGUUCUUUCUCUUCCUUGUAUAUAUAUUCUUUCUCGAUCAGUUGUCUUU,1.01 nM
3,Ie_S4_P3E.2_K3.1_C3.2_[+-1CCCT]_H3.1_A3.1_F3.1_T3.2 (ssRNA) RNA: UUUGACAACUGAUCGUUCUUUCUCUCCCUUGUAUAUAUAUUCUUUCUCGAUCAGUUGUCUUU,0.775 nM
4,Ie_S4_P3E.2_K3.1_C3.2_[+-1CCTC]_H3.1_A3.1_F3.1_T3.2 (ssRNA) RNA: UUUGACAACUGAUCGUUCUUUCUCUCCUCUGUAUAUAUAUUCUUUCUCGAUCAGUUGUCUUU,1.06 nM
5,ACAAACUGUAUUCCCAUUAACAAAC (ssRNA) [Ie_S3_P5E.1_K5.1_C5.1_H5.1_A5.1_[+6CCC]_F5.1_T5.1],203 nM
6,ACAAACUGUAUUAUUCUCAACAAAC (ssRNA) [Ie_S3_P5E.1_K5.1_C5.1_H5.1_A5.1_F5.1_[+9CTC]_T5.1],23 nM
7,Ie_S4_P3E.2_K3.1_C3.2_[+-2CCC]_H3.1_A3.1_F3.1_T3.2 (ssRNA) RNA: UUUGACAACUGAUCGUUCUUUCUCCCCUUGUAUAUAUAUUCUUUCUCGAUCAGUUGUCUUU,0.858 nM
8,Ie_S4_P3E.2_K3.1_C3.2_[+-1CCC]_H3.1_A3.1_F3.1_T3.2 (ssRNA) RNA: UUUGACAACUGAUCGUUCUUUCUCUCCCUGUAUAUAUAUUCUUUCUCGAUCAGUUGUCUUU,0.986 nM
9,Ie_S4_P3E.2_K3.1_C3.2_[+-1TTT]_H3.1_A3.1_F3.1_T3.2 (ssRNA) RNA: UUUGACAACUGAUCGUUCUUUCUCUUUUUGUAUAUAUAUUCUUUCUCGAUCAGUUGUCUUU,1.03 nM
10,Ie_S4_P3E.2_K3.1_C3.2_H3.1_[+1CCT]_A3.1_F3.1_T3.2 (ssRNA) RNA: UUUGACAACUGAUCGUUCUUUCUCUUCCUGUAUAUAUAUUCUUUCUCGAUCAGUUGUCUUU,1.07 nM
11,Ie_S4_P3E.2_K3.1_C3.2_[+-1CCT]_H3.1_A3.1_F3.1_T3.2 (ssRNA) RNA: UUUGACAACUGAUCGUUCUUUCUCUCCUUGUAUAUAUAUUCUUUCUCGAUCAGUUGUCUUU,0.625 nM
12,Ie_S4_P3E.2_K3.1_C3.2_[+-1CTT]_H3.1_A3.1_F3.1_T3.2 (ssRNA) RNA: UUUGACAACUGAUCGUUCUUUCUCUCUUUGUAUAUAUAUUCUUUCUCGAUCAGUUGUCUUU,1.24 nM
13,Ie_S4_P3E.2_K3.1_C3.2_[+-1CT]_H3.1_A3.1_F3.1_T3.2 (ssRNA) RNA: UUUGACAACUGAUCGUUCUUUCUCUCUUGUAUAUAUAUUCUUUCUCGAUCAGUUGUCUUU,0.942 nM
14,Ie_S4_P3E.2_K3.1_C3.2_[+-1TT]_H3.1_A3.1_F3.1_T3.2 (ssRNA) RNA: UUUGACAACUGAUCGUUCUUUCUCUUUUGUAUAUAUAUUCUUUCUCGAUCAGUUGUCUUU,1.2 nM
15,Ie_S4_P3E.2_K3.1_C3.2_[+-1TC]_H3.1_A3.1_F3.1_T3.2 (ssRNA) RNA: UUUGACAACUGAUCGUUCUUUCUCUUCUGUAUAUAUAUUCUUUCUCGAUCAGUUGUCUUU,0.769 nM
16,Ie_S4_P3E.2_K3.1_C3.2_H3.1_[+1TC]_A3.1_F3.1_T3.2 (ssRNA) RNA: UUUGACAACUGAUCGUUCUUUCUCUUUCGUAUAUAUAUUCUUUCUCGAUCAGUUGUCUUU,50.6 nM
17,ACAAACUGUAUUACUCUCUUAACAAAC (ssRNA) [Ie_S3_P5E.1_K5.1_C5.1_H5.1_A5.1_[+7CTCTC]_F5.1_T5.1],128 nM
18,ACAAACUGUAUUAUUCCUCUAACAAAC (ssRNA) [Ie_S3_P5E.1_K5.1_C5.1_H5.1_A5.1_F5.1_[+9CCTCT]_T5.1],20.7 nM
19,ACAAACUGUAUUACUUUUAACAAAC (ssRNA) [Ie_S3_P5E.1_K5.1_C5.1_H5.1_A5.1_[+7CTT]_F5.1_T5.1],115 nM
20,ACAAACUGUAUUUCUCUAUUAACAAAC (ssRNA) [Ie_S3_P5E.1_K5.1_C5.1_H5.1_A5.1_[+6TCTCT]_F5.1_T5.1],38.4 nM

row,Binder,Kd
1,Ib_S2_P3E.1_K3.1_C3.1_H3.1_[T1G]_A3.1_[A6G]_F3.1_T3.1 (ssRNA) RNA: UUUGAUUAAUAUGAUAUCGUUCUUUCUGGUAUGUAUUCUUUCUCGAUAUCAUAUUAAUCUUU,277 nM
2,Ic_S2_P3E.1_K3.1_C3.1_H3.1_A3.1_[T5A]_F3.1_T3.1 (ssRNA) RNA: UUUGAUUAAUAUGAUAUCGUUCUUUCUUGUAAAUAUUCUUUCUCGAUAUCAUAUUAAUCUUU,14.9 nM
3,Ib_S2_P3E.1_K3.1_C3.1_H3.1_[T1C]_A3.1_[A6G]_F3.1_T3.1 (ssRNA) RNA: UUUGAUUAAUAUGAUAUCGUUCUUUCUCGUAUGUAUUCUUUCUCGAUAUCAUAUUAAUCUUU,75.7 nM
4,Ib_S2_P3E.1_K3.1_C3.1_H3.1_[T1A]_A3.1_[A6G]_F3.1_T3.1 (ssRNA) RNA: UUUGAUUAAUAUGAUAUCGUUCUUUCUAGUAUGUAUUCUUUCUCGAUAUCAUAUUAAUCUUU,257 nM
5,Ib_S2_P3E.1_K3.1_C3.1_H3.1_[T1G]_A3.1_[A6T]_F3.1_T3.1 (ssRNA) RNA: UUUGAUUAAUAUGAUAUCGUUCUUUCUGGUAUUUAUUCUUUCUCGAUAUCAUAUUAAUCUUU,> 2300 nM
6,ACAAACUGUAUUAUUUCUAACAAAC (ssRNA) [Ie_S3_P5E.1_K5.1_C5.1_H5.1_A5.1_F5.1_[+8TTC]_T5.1],19.1 nM
7,ACAAACUGUAUUUCUAUUAACAAAC (ssRNA) [Ie_S3_P5E.1_K5.1_C5.1_H5.1_A5.1_[+6TCT]_F5.1_T5.1],7.3 nM
8,ACAAACUGUAUUACCCUUAACAAAC (ssRNA) [Ie_S3_P5E.1_K5.1_C5.1_H5.1_A5.1_[+7CCC]_F5.1_T5.1],510 nM
9,ACAAACUGUAUUAUUCCUAACAAAC (ssRNA) [Ie_S3_P5E.1_K5.1_C5.1_H5.1_A5.1_F5.1_[+9CCT]_T5.1],19.9 nM
10,ACAAACUGUAUUAUUUCCUAACAAAC (ssRNA) [Ie_S3_P5E.1_K5.1_C5.1_H5.1_A5.1_F5.1_[+8TTCC]_T5.1],21.6 nM
11,ACAAACUGUAUUACCUUUAACAAAC (ssRNA) [Ie_S3_P5E.1_K5.1_C5.1_H5.1_A5.1_[+7CCT]_F5.1_T5.1],221 nM
12,Ie_S4_P3E.2_K3.1_C3.2_[+-2T]_H3.1_A3.1_F3.1_T3.2 (ssRNA) RNA: UUUGACAACUGAUCGUUCUUUCUCUUUGUAUAUAUAUUCUUUCUCGAUCAGUUGUCUUU,0.987 nM
13,Ie_S4_P3E.2_K3.1_C3.2_[+-1C]_H3.1_A3.1_F3.1_T3.2 (ssRNA) RNA: UUUGACAACUGAUCGUUCUUUCUCUCUGUAUAUAUAUUCUUUCUCGAUCAGUUGUCUUU,1.07 nM
14,ACAAACUGUAUUAUUUCUCAACAAAC (ssRNA) [Ie_S3_P5E.1_K5.1_C5.1_H5.1_A5.1_F5.1_[+9TCTC]_T5.1],19.4 nM
15,Ie_S4_P3E.2_K3.1_C3.2_[+-2CCCTT]_H3.1_A3.1_F3.1_T3.2 (ssRNA) RNA: UUUGACAACUGAUCGUUCUUUCUCCCCUUUUGUAUAUAUAUUCUUUCUCGAUCAGUUGUCUUU,0.884 nM
16,Ie_S4_P3E.2_K3.1_C3.2_[+-1CTCTC]_H3.1_A3.1_F3.1_T3.2 (ssRNA) RNA: UUUGACAACUGAUCGUUCUUUCUCUCUCUCUGUAUAUAUAUUCUUUCUCGAUCAGUUGUCUUU,0.676 nM
17,ACAAACUGUAUUAUUAUCCACAAAC (ssRNA) [Ie_S3_P5E.1_K5.1_C5.1_H5.1_A5.1_F5.1_[+10TCC]_T5.1],5.94 nM
18,ACAAACUGUAUUAUUUUCAACAAAC (ssRNA) [Ie_S3_P5E.1_K5.1_C5.1_H5.1_A5.1_F5.1_[+9TTC]_T5.1],19.8 nM
19,ACAAACUGUAUUAUUCCCAACAAAC (ssRNA) [Ie_S3_P5E.1_K5.1_C5.1_H5.1_A5.1_F5.1_[+9CCC]_T5.1],18.1 nM
20,ACAAACUGUAUUAUCUCUCUAACAAAC (ssRNA) [Ie_S3_P5E.1_K5.1_C5.1_H5.1_A5.1_F5.1_[+8CTCTC]_T5.1],29.1 nM
